We go through 103 substances from the supplement of paper PMC12042874.

± gives the uncertainty stated by the source.

A short description of the data set: amyloid nucleation score (Sup35N fusion, yeast selection) (log enrichment); library NNK2; higher = more nucleation; inactive = no reads after selection. In a few lines:
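Sup35N fusions to peptides of 20 random codons were expressed in psi-negative yeast, induced 24 hours with 100 μM copper sulfate, and grown 7 days at 30°C on medium lacking adenine and uracil. Input and output plasmid inserts were sequenced by Illumina. The nucleation score is the DiMSum log enrichment of output over input reads, centred on the mode score of non-aggregating sequences. Sequences with under 100 input reads were excluded.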
For the substance LNLKRLLLQLFSMPMPVFHV, the amyloid nucleation score is -0.023 ± 0.49.

Substance WPTSSTYQHWFD had an amyloid nucleation score of 0.606 ± 0.41.

For HGETTTGILIELFVIWYVNS, the amyloid nucleation score entry is “inactive”.

In turn, GYLVTLWD registered an amyloid nucleation score of 1.03 ± 0.49.

Consider LRYLGWLACDYKTVGRSVTR, for which the amyloid nucleation score was 0.978 ± 0.74.

In turn, LSHMLDLRGNNKSFWCYVEG displayed an amyloid nucleation score of 0.89 ± 0.44.

As to HSLVCDN, the amyloid nucleation score is -0.122 ± 0.39.

The substance IFIMQTHFTGRVCPSSVKLP yielded an amyloid nucleation score of 4.99 ± 0.066.

For the substance CMFLFYVKYLNVHSGGLIML, the amyloid nucleation score result was “inactive”.

As to QVSDVRDLNFWISVTHVEVG, the amyloid nucleation score came to 3.4 ± 0.12.

On to CNGFVWLFSVGYFNNRFMWF, for which the amyloid nucleation score result was “inactive”.

Take YCKQNESVLDPSIDSLRVLP: the amyloid nucleation score came to 0.673 ± 0.26.

With NTGFNCCNHFFRADGSLVEC, the amyloid nucleation score came to 3.39 ± 0.15.

Regarding KFASVYWLGLFPLLMPTVVS, the amyloid nucleation score turned out to be 0.89 ± 0.43.

With PYFCDIMNGTCRYSLYGFSM, the amyloid nucleation score turned out to be 0.37 ± 0.51.

The substance CFVIGLSMNLGHAGHKVWMT gave an amyloid nucleation score of 4.75 ± 0.086.

Substance CTYHAQVFTFDHPGRSTRYS registered an amyloid nucleation score of -0.274 ± 0.76.

Take NDSCELLCESITYTAWFSGQ: the amyloid nucleation score came out at 3.22 ± 0.12.

For the substance QRVFDLKSGFGLNRDILVCL, the amyloid nucleation score entry is “inactive”.

Consider RSVSTTHRCRTTLKTSNYCL, for which the amyloid nucleation score came to 0.778 ± 0.67.

Consider SERRGIIGSGLRDGRVLFTT, for which the amyloid nucleation score entry is “inactive”.

For the substance YMLLRSYVFTKLLRLHCYRN, the amyloid nucleation score entry is “inactive”.

Substance RPTAIPAHLIVFSEFCEAEW displayed an amyloid nucleation score of 0.739 ± 0.45.

Consider YVLDFSNWIGDTADSIVAV, for which the amyloid nucleation score came to 0.145 ± 0.56.

Substance LHVHLGSEGPLHNKIVDAAK registered an amyloid nucleation score of -0.168 ± 0.42.

PVFVLNVLLVILDPFLGLSN: the amyloid nucleation score was -0.237 ± 0.34.

The substance RTEGRGCRAAWSK returned an amyloid nucleation score of 0.101 ± 0.76.

Consider DIPTMVNGILYFTGYDPRVS, for which the amyloid nucleation score was -0.647 ± 1.1.

TFLWKFMLNVTTFFIFPKPV yielded an amyloid nucleation score of -1.77 ± 1.

In the case of NMCWFKPG, the amyloid nucleation score was -0.329 ± 0.17.

As for IRKIMVF, the amyloid nucleation score result is “inactive”.

ECSGEHASVQVSTGLGTDVQ gave an amyloid nucleation score of 2.8 ± 0.065.

As for LQTAIVGSPRLVTFRIYIER, the amyloid nucleation score is 7.197 ± 0.065.

Substance LSGVGFLDFRPLN came in with an amyloid nucleation score of 0.734 ± 0.81.

Consider RGSGKCYRAGFMIAIVTHPL, for which the amyloid nucleation score is 1.5 ± 0.41.

For the substance CMSAIFLPMIEF, the amyloid nucleation score was -0.714 ± 0.44.

GECRRWKFGLWENVPDMSIK: the amyloid nucleation score was 0.177 ± 0.48.

Regarding LFLSLRVRRYVQHKKSGSAG, the amyloid nucleation score stood at 0.082 ± 1.1.

Consider FNGVIFNGSSVNYYPFAHSF, for which the amyloid nucleation score was determined as 5.035 ± 0.036.

In turn, YEPRSNLCCIINTIKFPKTI displayed an amyloid nucleation score of 6.169 ± 0.031.

As to CRWDFVLWRFLCSIKKDWVT, the amyloid nucleation score was -0.386 ± 0.79.

In turn, AWVWFS displayed an amyloid nucleation score of -0.845 ± 1.1.

For FLLECSWFCVYTIGFYYRNI, the amyloid nucleation score result was “inactive”.

Take SGIRDTLVSWGPRGMG: the amyloid nucleation score was -0.309 ± 0.45.

AYMVEWEENHSESSVA showed an amyloid nucleation score of -0.383 ± 1.

DMYDLASRSKRELF: the amyloid nucleation score result is “inactive”.

The substance LNTEMGSLKNL gave an amyloid nucleation score of 3.08 ± 0.06.

In turn, IFHPSLTSRIPINTRHKVT had an amyloid nucleation score of 4.4 ± 0.065.

In turn, TLLVKSMGGSLET returned an amyloid nucleation score of 4.11 ± 0.044.

In the case of SLESSLAYVGSLGIAGGSAQ, the amyloid nucleation score was determined as 1.11 ± 0.23.

Take VVMMSGYILTSTSLVYYHFY: the amyloid nucleation score amounted to 0.005 ± 0.54.

Substance SGTDHNRMYF showed an amyloid nucleation score of 0.312 ± 0.57.

In turn, MITDGGASVGLNYRYS registered an amyloid nucleation score of -0.524 ± 0.33.

TTRSNEKIVFHGWTSVINRH: the amyloid nucleation score is -0.696 ± 0.76.

For MDLVSSFRLNVCGT, the amyloid nucleation score was 0.089 ± 0.5.

With SLSRLVLECNGKSVRHEKM, the amyloid nucleation score was 0.393 ± 0.32.

FHLEPLKWSWVST: the amyloid nucleation score is -0.837 ± 1.1.

Turning to LLLLF, the amyloid nucleation score is -1.58 ± 0.75.

As for YRRSPFETSGLQSCYCGSIG, the amyloid nucleation score is -0.003 ± 1.1.

In turn, SVDIGYS registered an amyloid nucleation score of 0.586 ± 0.81.

As to FGIGFGFLVHYDGRFWVYFG, the amyloid nucleation score entry is “inactive”.

The substance CSNGLYPNTVGRLEYS gave an amyloid nucleation score of -1.05 ± 0.39.

On to FYKLNGKNWSRVKVPHSWLF, for which the amyloid nucleation score result was “inactive”.

As for LRARTVVGEYCYSLYMQFVM, the amyloid nucleation score was 0.213 ± 0.43.

Substance MDNHVLKFYRNDYKE displayed an amyloid nucleation score of 0.191 ± 0.65.

For HFSVMCTTRSKRLSIKPEWR, the amyloid nucleation score was 4.41 ± 0.097.

Regarding RCEFFGVGMSREKNMGCSKC, the amyloid nucleation score came out at 0.875 ± 0.47.

Consider FSQGYWLLMA, for which the amyloid nucleation score was 0.305 ± 0.23.

Substance VDRIESVSYLYSHDYNESGP showed an amyloid nucleation score of -0.212 ± 0.53.

Substance LNQSKFGKVGTSSVFWLFYN registered an amyloid nucleation score of -1.01 ± 0.31.

For LTGFLNGAGNN, the amyloid nucleation score was 1.75 ± 0.12.

In turn, VFNFVSFRFDDTVD showed an amyloid nucleation score of 6.987 ± 0.04.

Substance EKLRNQFKP displayed an amyloid nucleation score of -0.569 ± 1.1.

On to YSEQNKWSRFVTDGGNLV, for which the amyloid nucleation score is -0.802 ± 0.61.

As to GVASNGKGFNTFMCAHCY, the amyloid nucleation score was -0.225 ± 0.41.

Regarding MIICLEVKTGYST, the amyloid nucleation score was 3.73 ± 0.068.

As for FALNPAESLHIRYIGLALF, the amyloid nucleation score is -1.02 ± 0.62.

In turn, MSWVVIQFTINIFRHKTF returned an amyloid nucleation score of 3.47 ± 0.11.

In turn, DGCDNYDSRESKTLFMRMMW showed an amyloid nucleation score of 1.11 ± 0.43.

On to AISPVGYCDSTFVFSTSLCG, for which the amyloid nucleation score turned out to be 4.13 ± 0.12.

For MVVNVGK, the amyloid nucleation score is -0.088 ± 0.17.

For the substance NASLYVSYGM, the amyloid nucleation score was determined as 1.5 ± 0.39.

Regarding FGCSVNRKILVLMFVNVISV, the amyloid nucleation score is -0.627 ± 0.39.

In the case of YWELDCTGYEGGMIRREWEI, the amyloid nucleation score amounted to 0.586 ± 0.81.

Take KTYDGGFKRNRDEVGPKPGE: the amyloid nucleation score was -0.326 ± 1.

Consider ISKLTTRLLIYERNFPNWGH, for which the amyloid nucleation score is 3.19 ± 0.17.

VLCLNFHGANVGWDLTTVYT came in with an amyloid nucleation score of 1.02 ± 0.17.

Regarding HWLNLCP, the amyloid nucleation score is -0.512 ± 0.48.

Consider TFNIGNELVT, for which the amyloid nucleation score is -0.99 ± 0.37.

In turn, LYVLVLMVCYRYGGKF registered an amyloid nucleation score of 4.38 ± 0.063.

In the case of ANLLKTRRVMYRGFG, the amyloid nucleation score was determined as 0.611 ± 0.38.

As for KWFGSRFYYLYKPPLFSHLA, the amyloid nucleation score entry is “inactive”.

For RHVMSR, the amyloid nucleation score amounted to 0.419 ± 0.23.

On to RFRLWIVCG, for which the amyloid nucleation score was -0.253 ± 0.26.

With SCSMLVRDDIIIEPDCLLGV, the amyloid nucleation score is 0.45 ± 0.74.

As to FISMGQGRPEFLWVFVDVGD, the amyloid nucleation score was found to be 0.092 ± 1.1.

The substance VKVHSIESGGLRPWCVGASV showed an amyloid nucleation score of 0.747 ± 0.3.

QSTSQLRLYELSR returned an amyloid nucleation score of -0.206 ± 1.1.

KRGRDV showed an amyloid nucleation score of -0.292 ± 0.49.

HKGYCVRIIT came in with an amyloid nucleation score of -0.335 ± 0.26.

As to MSSYDF, the amyloid nucleation score entry is “inactive”.

With VKPMMTFIATYGRYNHQFLS, the amyloid nucleation score is 0.861 ± 0.43.

On to LCVIIMFLIIYYNEEFVWSQ, for which the amyloid nucleation score entry was “inactive”.
